In paper PMC12103069, “Structure predictions of MuRF1‐UBE2 complexes identify amino acid residues governing interaction selectivity for each MuRF1‐E2 pair” (The Febs Journal, 2025):
One block for each binder: values may come before it.

B1: GST-MuRF1RM (MuRF1 amino acids 1-115, RING and MFC domains) (domain or fragment, Rattus norvegicus)
chain: MDYKSGLIPDGNAMENLEKQLICPICLEMFTKPVVILPCQHNLCRKCANDIFQAANPYWTNRGGSVSMSGGRFRCPSCRHEVIMDRHGVYGLQRNLLVENIIDIYKQECSSRPLQ
modifications: red fluorescent dye NT-647, covalently, by amine coupling (in the fluorescence assay only)
notes: MuRF1 / TRIM63, Rattus norvegicus, first 115 amino acids (RING and MFC domains); Cloned in pGEX6P3; Immobilised unlabelled by amine coupling in SPR; labelled with NT-647 in the fluorescence assay; also called MuRF1 (in the SPR section); not shown: GST, N-terminal, kept
B2: GST-MuRF3 (full length) (enzyme, UniProt Q9ERP3 1-366, looked up)
chain: MNFTVGFKPLLGDAHNMDNLEKQLICPICLEMFSKPVVILPCQHNLCRKCANDVFQASNPLWQSRGSTTVSSGGRFRCPSCRHEVVLDRHGVYGLQRNLLVENIIDIYKQESSRPLHAKAEQHLMCEEHEDEKINIYCLSCEVPTCSLCKVFGAHKDCEVAPLPTIYKRQKSELSDGIAMLVAGNDRVQAVITQMEEVCQTIEDNSRRQKQLLNQRFETLCAVLEERKGELLQALAREQEEKLQRVRGLIRQYGDHLEGSSKLVESAIQSMEEPQMALYLQQAKELINKVGAMSKVELAGRPEPGYESMEQFSVSVEHVAEMLRTIDFQPGAAGDEEDDDMALDGEEGNAGLEEERLDVPEGSGLH
modifications: fluorochrome, covalently (NT-647 by amine coupling in the methods; NT115 in the results)
notes: Cloned in pGEX6P3

Columns and labels:
Assay in all cases: other fluorescence titration; change in the initial fluorescence of dye-labelled GST-MuRF (10 nM, constant) with a 16-sample serial dilution of the E2; MonolithX (NanoTemper), premium capillaries, 100% MST power, 25 °C; 50 mM HEPES pH 7.4, 150 mM NaCl, 0.005% Tween20, 0.1% dextran
Conditions in all cases: both partners purified
UBE2L3 wild type = molecular target: T1, UBE2L3 wild type (Mus musculus)
T1 construct: UBE2L3, Mus musculus, full length (amplified from C2C12 cells); Cloned in pET28a; source: E. coli Rosetta (DE3), purified (Ni-NTA)

GST-MuRF3 (full length) = molecular target: B2
[1] = molecular target: B1
[2] = molecular target: T2, GST-MuRF3RM (MuRF3 amino acids 1-115, RING and MFC domains) (UniProt Q9ERP3 1-115)
T2 construct: Cloned in pGEX6P3
T2 sequence (looked up): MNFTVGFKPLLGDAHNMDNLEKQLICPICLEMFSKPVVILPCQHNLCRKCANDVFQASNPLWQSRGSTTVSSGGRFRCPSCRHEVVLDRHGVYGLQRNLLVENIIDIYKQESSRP

Binder: B1
- binding result (UBE2L3 wild type): binds

Binder: B2
- Kd (UBE2L3 wild type): 400 nM

B5: UBE2E1 (enzyme, Mus musculus)
chain: MSDDDSRASTSSSSSSSSNQQTEKEGSTPKKKESKVSMSKNSKLLSTSAKRIQKELADITLDPPPNCSAGPKGDNIYEWRSTILGPPGSVYEGGVFFLDITFTPEYPFKPPKVTFRTRIYHCNINSQGVICLDILKDNWSPALTISKVLLSICSLLTDCNPADPLVGSIATQYMTNRAEHDRMARQWTKRYAT
notes: UBE2E1, Mus musculus, full length (amplified from C2C12 cells); Cloned in pET28a; source: E. coli Rosetta (DE3), purified (Ni-NTA)
- Kd [1]: 400 nM
- Kd [2]: 500 nM

More lines, now with the values ahead:

- Kd (GST-MuRF3 (full length)): 400 nM
B3: UBE2J1 cytosolic part, wild type (domain or fragment, Mus musculus, UniProt Q9JJZ4 1-282, looked up)
chain: METRYNLKSPAVKRLMKEAAELKDPTDHYHAQPLEDNLFEWHFTVRGPPDSDFDGGVYHGRIVLPPEYPMKPPSIILLTANGRFEVGKKICLSISGHHPETWQPSWSIRTALLAIIGFMPTKGEGAIGSLDYTPEERRALAKKSQDFCCEGCGSAMKDVLLPLKSGSGSSQADQEAKELARQISFKAEVNSSGKTIAESDLNQCFSLNDSQDDLPTTFQGATASTSYGAQNPSGAPLPQPTQPAPKNTSMSPRQRRAQQQSQRRPSTSPDVLQGQPPRAHHT
notes: UBE2J1, Mus musculus, cytosolic part (amplified from C2C12 cells); Cloned in pET28a; source: E. coli Rosetta (DE3), purified (Ni-NTA)

- Kd (GST-MuRF3 (full length)): 24800 nM
B4: UBE2J2 cytosolic part, wild type (domain or fragment, Mus musculus, UniProt Q6P073 1-226, looked up)
chain: MSNNSNKRAPTTATQRLKQDYLRIKKDPVPYICAEPLPSNILEWHYVVRGPEMTPYEGGYYHGKLIFPREFPFKPPSIYMITPNGRFKCNTRLCLSITDFHPDTWNPAWSVSTILTGLLSFMVEKGPTLGSIETSDFTKKQLAAQSLVFNLKDKVFCELFPEVVEEIKQKQKAQDELSNRPQNLPLPDVVPDGELHRGQHGIQLLNGHAPAAGPNLAGLPQANRHH
notes: UBE2J2, Mus musculus, cytosolic part (amplified from C2C12 cells); Cloned in pET28a; also called EJ2c; source: E. coli Rosetta (DE3), purified (Ni-NTA)
